Positions count from the first letter of the chain named. Each block holds one binder with its values, some of them ahead of it.
Molecular target: T1, biotin labeled hRAGE-Fc (human, UniProt Q15109 24-344, limits assumed, biotin labeled (site not stated))
T1 construct: Biotinylated in selections and HTRF; also called Biotin-labeled RAGE-Fc; biotinylated RAGE-FC; not shown: Fc part, not described
Assay: HTRF competition on biotinylated hRAGE-Fc; scFv titrated; competitor Eu-cryptate-labeled parental XT-M4 antibody

T1 sequence (Q15109 24-344 limits assumed): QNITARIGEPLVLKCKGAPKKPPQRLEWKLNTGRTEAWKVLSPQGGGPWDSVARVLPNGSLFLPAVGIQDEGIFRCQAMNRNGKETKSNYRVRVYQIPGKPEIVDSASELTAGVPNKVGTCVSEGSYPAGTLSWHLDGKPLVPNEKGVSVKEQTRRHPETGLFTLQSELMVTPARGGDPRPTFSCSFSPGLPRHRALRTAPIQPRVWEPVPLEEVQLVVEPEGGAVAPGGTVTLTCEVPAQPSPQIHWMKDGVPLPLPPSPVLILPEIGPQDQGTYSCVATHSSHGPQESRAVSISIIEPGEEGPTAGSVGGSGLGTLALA

IC50: 1.31 nM
B1: 3B4 scFv (scFv)
chain: DIQMTQSPSSLSASVGDRVTITCRASQDVGIYVNWFQQKPGKAPRRLIYRATNLADGVPSRFSGSRSGTDFTLTISSLQPEDFATYYCLEFDEHPLTFGGGTKVEIKDGGGSGGGGSGGGGSSEVQLVESGGGLVQPGGSLRLSCAASGFTFNNYWMTWVRQAPGKGLEWVASIDNSGDNTYYPDSVKDRFTISRDNAKNSLYLQMNSLRAEDTAVYYCARGGDIREGLRYWGQGTLVTVSS

IC50: 1.46 nM
B2: 6D5 scFv (scFv)
chain: B1 chain with R226K, E227V, G228S, R230D, Y231Q

Source: patent US20100113304A1 (Pfizer, published 2010)
